Substrate in series [1]: CC(C)(COP(=O)(O)OP(=O)(O)OC[C@H]1O[C@@H](n2cnc3c(N)ncnc32)[C@H](O)[C@@H]1O)[C@@H](O)C(=O)NCCC(=O)NCCS
The experiment in a line: purified protein. Particulars: 200 uM ATP, 10 mM MgCl2, pH 7.4, 37 °C.

Substrate in series [2]: Nc1ncnc2c1ncn2[C@@H]1O[C@H](COP(=O)(O)OP(=O)(O)OP(=O)(O)O)[C@@H](O)[C@H]1O
Kind of series: purified protein. Conditions: 200 uM dCoA, 10 mM MgCl2, pH 7.4, 37 °C, phosphotransferase.

In publication doi:10.1101/2020.11.11.377994v1 one finds Km and kcat data, which are given here for one protein.

B1: DPCK (DPCK-WT), putative dephospho-CoA kinase (Aquifex aeolicus VF5) (protein)
chain: MKRIGLTGNIGCGKSTVAQMFRELGAYVLDADKLIHSFYRKGHPVYEEVVKTFGKGILDEEGNIDRKKLADIVFKDEEKLRKLEEITHRALYKEIEKITKNLSEDTLFILEASLLVEKGTYKNYDKLIVVYAPYEVCKERAIKRGMSEEDFERRWKKQMPIEEKVKYADYVIDNSGSIEETYKQVKKVYEELTRDP
Regarding B1, in “purified protein [1]”, the Km came to 24.3 ± 1.7 µM and the kcat is 0.817 ± 0.0867 s⁻¹. Also, in “purified protein [2]”, the Km turned out to be 12.7 ± 0.3 µM and the kcat amounted to 0.73 ± 0.025 s⁻¹.

What is called Km is the concentration of substrate that gives half-maximal velocity. For orientation: kcat means the maximal rate divided by the concentration of active sites.
